Reference: the supplement of paper PMC9112550, “Optimization of the antimicrobial peptide Bac7 by deep mutational scanning” (BMC Biology, 2022)

Tested on: Escherichia coli TOP10
Experiment: shrunken log2 fold change of peptide-encoding DNA abundance (4.5 h post-induction vs induction); higher = less antimicrobial activity (less host growth inhibition)
Conditions: time post-induction: 4.5 h; library: site-saturation at positions 5, 18, 19, 20
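Note: peptides expressed intracellularly from a pBAD plasmid library in pooled LB shake-flask culture, induced with 0.3% L-arabinose, DNA abundance read by NGS, three biological replicates, DESeq2 with apeglm shrinkage.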

Sequence	shrunken log2 fold change
RRIRPRPPRLPRPRPRPLELPRP	0.0125
RRIRTRPPRLPRPRPRPMHQPRP	-0.0917
RRIRRRPPRLPRPRPRPVECPRP	-0.0238
RRIRQRPPRLPRPRPRPYMMPRP	0.00408
RRIRGRPPRLPRPRPRPWNEPRP	-0.14
RRIRVRPPRLPRPRPRPDIVPRP	-0.229
RRIRWRPPRLPRPRPRPYPAPRP	-0.0239
RRIRTRPPRLPRPRPRPTHHPRP	-0.0136
RRIRSRPPRLPRPRPRPHWEPRP	-0.0851
RRIRERPPRLPRPRPRPTTLPRP	-0.325
RRIRWRPPRLPRPRPRPFIFPRP	-0.0639
RRIRCRPPRLPRPRPRPWEIPRP	0.0501
RRIRRRPPRLPRPRPRPLSKPRP	1.95
RRIRIRPPRLPRPRPRPCKMPRP	-0.0175
RRIRLRPPRLPRPRPRPSPLPRP	-0.192
RRIRSRPPRLPRPRPRPSSWPRP	0.206
RRIRDRPPRLPRPRPRPTVDPRP	0.195
RRIRCRPPRLPRPRPRPCFVPRP	-0.235
RRIRLRPPRLPRPRPRPYVCPRP	-0.0658
RRIRWRPPRLPRPRPRPVDPPRP	0.158
RRIRCRPPRLPRPRPRPADAPRP	1.44
RRIRMRPPRLPRPRPRPQAHPRP	0.0821

Sequence	shrunken log2 fold change
RRIRFRPPRLPRPRPRPNQHPRP	-0.275
RRIRTRPPRLPRPRPRPIKNPRP	-0.185
RRIRWRPPRLPRPRPRPQISPRP	-0.22
RRIRVRPPRLPRPRPRPTGKPRP	-0.116
RRIRNRPPRLPRPRPRPSDSPRP	-0.0909
RRIRHRPPRLPRPRPRPFPPPRP	-0.228
RRIRSRPPRLPRPRPRPLIYPRP	-0.546
RRIRIRPPRLPRPRPRPCRVPRP	-1.39
RRIRSRPPRLPRPRPRPYLRPRP	-0.00709
RRIRPRPPRLPRPRPRPTRDPRP	0.481
RRIRRRPPRLPRPRPRPDYMPRP	-0.384
RRIRGRPPRLPRPRPRPRIKPRP	0.487
RRIRERPPRLPRPRPRPQQQPRP	0.00378
RRIRARPPRLPRPRPRPCPSPRP	0.0639
RRIRMRPPRLPRPRPRPLFHPRP	-0.0668
RRIRYRPPRLPRPRPRPNPGPRP	-0.000104
RRIRMRPPRLPRPRPRPMMGPRP	0.0255
RRIRCRPPRLPRPRPRPLPDPRP	0.33
RRIRSRPPRLPRPRPRPMNHPRP	-0.256
RRIRLRPPRLPRPRPRPDCLPRP	-0.0212
RRIRFRPPRLPRPRPRPQNIPRP	-0.411
RRIRQRPPRLPRPRPRPDTFPRP	-0.00762

Sequence	shrunken log2 fold change
RRIRDRPPRLPRPRPRPLCLPRP	0.0562
RRIRHRPPRLPRPRPRPMFEPRP	-0.239
RRIRIRPPRLPRPRPRPQASPRP	-0.0941
RRIRERPPRLPRPRPRPPSQPRP	-0.213
RRIRYRPPRLPRPRPRPLRGPRP	0.561
RRIRWRPPRLPRPRPRPHRRPRP	-0.0988
RRIRWRPPRLPRPRPRPSFDPRP	0.0774
RRIRTRPPRLPRPRPRPCTVPRP	-0.442
RRIRMRPPRLPRPRPRPHMRPRP	0.509
RRIRQRPPRLPRPRPRPERDPRP	0.321
RRIRNRPPRLPRPRPRPTSQPRP	0.187
RRIRPRPPRLPRPRPRPRVYPRP	-0.311
RRIRQRPPRLPRPRPRPLDLPRP	-0.276
RRIRNRPPRLPRPRPRPENQPRP	0.216
RRIRRRPPRLPRPRPRPIQCPRP	0.00305
RRIRCRPPRLPRPRPRPPQSPRP	0.839
RRIRARPPRLPRPRPRPCLAPRP	0.328
RRIRLRPPRLPRPRPRPEEYPRP	0.0401
RRIRNRPPRLPRPRPRPRMWPRP	0.28
RRIRPRPPRLPRPRPRPWMSPRP	-0.166
RRIRVRPPRLPRPRPRPKIGPRP	-0.0842
RRIRTRPPRLPRPRPRPRHRPRP	0.0476

Sequence	shrunken log2 fold change
RRIRLRPPRLPRPRPRPTAMPRP	0.0595
RRIRCRPPRLPRPRPRPTVGPRP	0.224
RRIRKRPPRLPRPRPRPPIMPRP	-0.0359
RRIRDRPPRLPRPRPRPEQVPRP	0.015
RRIRTRPPRLPRPRPRPWDPPRP	0.102
RRIRARPPRLPRPRPRPQTPPRP	0.456
RRIRGRPPRLPRPRPRPGRCPRP	1.09
RRIRARPPRLPRPRPRPFSIPRP	0.111
RRIRKRPPRLPRPRPRPGHYPRP	0.0236
RRIRARPPRLPRPRPRPSWKPRP	0.237
RRIRNRPPRLPRPRPRPWAGPRP	0.163
RRIRLRPPRLPRPRPRPMLCPRP	-0.0499
RRIRLRPPRLPRPRPRPGGYPRP	-0.192
RRIRDRPPRLPRPRPRPLYFPRP	-0.601
RRIRKRPPRLPRPRPRPQWMPRP	-0.307
RRIRARPPRLPRPRPRPNDVPRP	0.128
RRIRLRPPRLPRPRPRPDFFPRP	0.0131
RRIRKRPPRLPRPRPRPLCQPRP	0.206
RRIRSRPPRLPRPRPRPKYHPRP	-0.601
RRIRNRPPRLPRPRPRPSRYPRP	-0.000156
RRIRYRPPRLPRPRPRPVFSPRP	-0.303
RRIRDRPPRLPRPRPRPNNCPRP	-0.466

Sequence	shrunken log2 fold change
RRIRKRPPRLPRPRPRPYKCPRP	-0.168
RRIRCRPPRLPRPRPRPQRVPRP	-0.158
RRIRMRPPRLPRPRPRPQMMPRP	0.443
RRIRRRPPRLPRPRPRPMKVPRP	-0.0467
RRIRMRPPRLPRPRPRPEFGPRP	1.22
RRIRLRPPRLPRPRPRPHDNPRP	-0.526
RRIRERPPRLPRPRPRPYLGPRP	-0.12
RRIRWRPPRLPRPRPRPCFIPRP	-0.423
RRIRRRPPRLPRPRPRPHAEPRP	0.317
RRIRERPPRLPRPRPRPDGHPRP	-0.00149
RRIRERPPRLPRPRPRPVVEPRP	0.118
RRIRIRPPRLPRPRPRPGGAPRP	0.288
RRIRWRPPRLPRPRPRPNIHPRP	-0.392
RRIRMRPPRLPRPRPRPESFPRP	0.0441
RRIRTRPPRLPRPRPRPEFPPRP	0.0504
RRIRIRPPRLPRPRPRPDPDPRP	-0.131
RRIRGRPPRLPRPRPRPDYQPRP	-0.418
RRIRARPPRLPRPRPRPEEMPRP	1.73
RRIRWRPPRLPRPRPRPGCLPRP	0.792
RRIRFRPPRLPRPRPRPWEWPRP	0.0781
RRIRYRPPRLPRPRPRPRLQPRP	0.196
